How the values were obtained:
[1] = molecular target: T1, Oct2β (in vitro translated) (Ictalurus punctatus (channel catfish), UniProt O13007 1-480); assay: EMSA; 1x Promega binding buffer (from 5x, composition not given), 30 min preincubation at room temperature then 30 min with probe; 5% native PAGE at 4°C; 100x competitor; pH and salt not given; extract EMSA as in Ross et al; conditions: protein: ivt; label: 32P-dATP Klenow fill-in; 5' overhang 4 nt on both strands as annealed; labeled by Klenow fill-in
T1 sequence: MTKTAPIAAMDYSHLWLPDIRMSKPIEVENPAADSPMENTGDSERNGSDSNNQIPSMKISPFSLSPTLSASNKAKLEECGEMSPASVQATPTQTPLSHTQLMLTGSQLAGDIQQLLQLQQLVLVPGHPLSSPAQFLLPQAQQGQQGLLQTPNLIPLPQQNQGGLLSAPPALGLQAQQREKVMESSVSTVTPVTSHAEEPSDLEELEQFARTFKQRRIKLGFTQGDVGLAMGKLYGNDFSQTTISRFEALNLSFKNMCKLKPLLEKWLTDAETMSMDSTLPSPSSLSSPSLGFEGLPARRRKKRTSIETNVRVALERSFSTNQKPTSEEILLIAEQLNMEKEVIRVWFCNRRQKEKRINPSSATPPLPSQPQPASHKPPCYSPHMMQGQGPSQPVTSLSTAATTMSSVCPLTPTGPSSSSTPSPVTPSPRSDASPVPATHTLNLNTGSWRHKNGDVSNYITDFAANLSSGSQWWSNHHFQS

[2] = molecular target: T2, Oct1 (in vitro translated) (Ictalurus punctatus (channel catfish; …, UniProt O57602 1-623); assay: EMSA; cold self competitor inhibits; anti-Oct1 abolishes shift; 1x Promega binding buffer (from 5x, composition not given), 30 min preincubation at room temperature then 30 min with probe; 5% native PAGE at 4°C; 100x competitor; pH and salt not given; extract EMSA as in Ross et al; conditions: protein: ivt; label: 32P-dATP Klenow fill-in; 5' overhang 4 nt on both strands as annealed; labeled by Klenow fill-in
T2 sequence: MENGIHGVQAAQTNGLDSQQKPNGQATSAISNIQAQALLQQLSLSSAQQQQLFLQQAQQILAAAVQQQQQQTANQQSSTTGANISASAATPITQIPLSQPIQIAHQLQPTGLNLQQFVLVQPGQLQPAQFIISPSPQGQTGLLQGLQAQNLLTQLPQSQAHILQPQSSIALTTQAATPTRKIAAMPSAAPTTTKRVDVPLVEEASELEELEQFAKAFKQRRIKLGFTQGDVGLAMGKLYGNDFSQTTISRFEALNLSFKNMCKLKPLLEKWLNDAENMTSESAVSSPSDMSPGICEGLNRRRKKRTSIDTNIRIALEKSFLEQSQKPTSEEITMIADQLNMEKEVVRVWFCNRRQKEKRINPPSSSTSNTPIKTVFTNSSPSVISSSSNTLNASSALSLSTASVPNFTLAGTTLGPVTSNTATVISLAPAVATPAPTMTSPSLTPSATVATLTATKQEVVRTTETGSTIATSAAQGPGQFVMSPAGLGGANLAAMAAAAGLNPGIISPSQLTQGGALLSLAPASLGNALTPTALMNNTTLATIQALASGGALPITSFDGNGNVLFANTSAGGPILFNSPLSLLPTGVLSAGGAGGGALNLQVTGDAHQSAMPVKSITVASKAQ

B1: Eμ3' core enhancer first octamer (G-2110/G-2111) (dsDNA)
DNA 1: GCAAAACACTGCATGTAAATAGTCTAAT
DNA 2: CATTATTAGACTATTTACATGCAGTGTT
- binding result [1]: binds
- binding result [2]: binds
